2 molecules from US7176277 (BURNHAM INSTITUTE, dated 2007) can be followed below.

One assay deals with T1, Bcl-2 (UniProt P10415 1-239).
T1 construct: The residue numbers used for the mutants (Tyr108, Leu137, Gly145, Arg146, TM 205-239) fit human Bcl-2 alpha; also called full-length Bcl-2; ^35S-labeled Bcl-2
The assay can be described thus: Co-IP (result restated in Example 8). The method, then: (§1) The cells were harvested and reporter gene activity was measured. […] Cells were suspended in lysis buffer (50 mM Tris-HCl, PH7.4; 150 mM NaCl; 20 mM EDTA; 1% NP-40; 1 mM PMSF; 50 μg/ml Leupeptin; 20 mg/ml Aprotinin; 0.1 mM Na_3VO_4; and 1 mM DTT). Cells extracts were cleared by incubation with the Protein A/G plus Agarose beads (Santa Cruz) and then incubated with appropriate antibody and 30 μl of Protein A or G plus Agarose beads overnight at 4° C. […] Immunoreactive products were detected by chemiluminescence with an enhanced chemiluminescence system (ECL) (Amersham).
A Co-IP assay was performed, as described above.

A further assay concerns the target T2, GFP-TR3/ΔDBD (human, UniProt P22736 1-598).
T2 construct: also called GFP-ΔDBD
The assay can be described thus: Co-IP. The method, then:
as §1

B1: TR3/ΔDBD/ΔDC1 (other, not shown: large carriers; small tags and cut ends)
chain: MPCIQAQYGTPAPSPGPRDHLASDPLTPEFIKPTMDLASPEAAPAAPTALPSFSTFMDGYTGEFDTFLYQLPGTVQPCSSASSSASSTSSSSATSPASASFKFEDFQVYGCYPGPLSGPVDEALSSSGSDYYGSPCSAPSPSTPSFQPPQLSPWDGSFGHFSPSQTYEHVAAVAGEPQPASCLSRLLGKLPELRTLCTQGLQRIFYLKLEDLVPPPPIIDKIFMDTLPF
notes: also called TR3/ΔDBD/DC1; GFP fusion
On to B1, for which, in the assay with Bcl-2, the binding result was “no binding”.

B2: Bcl-2/ΔLoop (other, UniProt P10415 1-239, looked up)
chain: MAHAGRTGYDNREIVMKYIHYKLSQRGYEWDAAGPALSPVPPVVHLTLRQAGDDFSRRYRRDFAEMSSQLHLTPFTARGRFATVVEELFRDGVNWGRIVAFFEFGGVMCVESVNREMSPLVDNIALWMTEYLNRHLHTWIQDNGGWDAFVELYGPSMRPLFDFSWLSLKTLLSLALVGACITLGAYLGHK
notes: also called Bcl-2 lacking the loop region
B2: in the assay with GFP-TR3/ΔDBD, the binding result is given as “no binding”.
